Assay results taken from IntAct's records for PubMed 23933751.

B1: F-box only protein 7 (Homo sapiens), Q9Y3I1 (parent)
chain: MRLRVRLLKRTWPLEVPETEPTLGHLRSHLRQSLLCTWGYSSNTRFTITLNYKDPLTGDEETLASYGIVSGDLICLILQDDIPAPNIPSSTDSEHSSLQNNEQPSLATSSNQTSMQDEQPSDSFQGQAAQSGVWNDDSMLGPSQNFEAESIQDNAHMAEGTGFYPSEPMLCSESVEGQVPHSLETLYQSADCSDANDALIVLIHLLMLESGYIPQGTEAKALSMPEKWKLSGVYKLQYMHPLCEGSSATLTCVPLGNLIVVNATLKINNEIRSVKRLQLLPESFICKEKLGENVANIYKDLQKLSRLFKDQLVYPLLAFTRQALNLPDVFGLVVLPLELKLRIFRLLDVRSVLSLSAVCRDLFTASNDPLLWRFLYLRDFRDNTVRVQDTDWKELYRKRHIQRKESPKGRFVMLLPSSTHTIPFYPNPLHPRPFPSSRLPPGIIGGEYDQRPTLPYVGDPISSLIPGPGETPSQFPPLRPRFDPVGPLPGPNPILPGRGGPNDRFPFRPSRGRPTDGRLSFM

Variants of: B1
Conditions: with prkn_human PRKN

Variant | effect of a mutation on the interaction
T22M | disrupting interaction
